Measured values as given in patent US20250011363A1, “OPTIMIZED SHORTENED PEPTIDE THAT BINDS TO ACETYLCHOLINE RECEPTOR, AND USE THEREOF” (SKINMED CO., LTD., priority 2021, published 2025).

biological target: acetylcholine receptor (Homo sapiens, UniProt P02708); test: SPR binding affinity (RU) of optimized 5mer/6mer/7mer peptides, Examples 6-7; conditions: 6mer-1 Top sequence; SPR; peptides tested at 10 μM
Summary of the method: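 Synthetic 5mer and 6mer peptides, built from frequent or infrequent amino-acid combinations, were tested at 10 μM for binding to the human acetylcholine receptor by surface plasmon resonance. Binding is reported in response units (RU).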

Sequence of acetylcholine receptor (P02708 21-457): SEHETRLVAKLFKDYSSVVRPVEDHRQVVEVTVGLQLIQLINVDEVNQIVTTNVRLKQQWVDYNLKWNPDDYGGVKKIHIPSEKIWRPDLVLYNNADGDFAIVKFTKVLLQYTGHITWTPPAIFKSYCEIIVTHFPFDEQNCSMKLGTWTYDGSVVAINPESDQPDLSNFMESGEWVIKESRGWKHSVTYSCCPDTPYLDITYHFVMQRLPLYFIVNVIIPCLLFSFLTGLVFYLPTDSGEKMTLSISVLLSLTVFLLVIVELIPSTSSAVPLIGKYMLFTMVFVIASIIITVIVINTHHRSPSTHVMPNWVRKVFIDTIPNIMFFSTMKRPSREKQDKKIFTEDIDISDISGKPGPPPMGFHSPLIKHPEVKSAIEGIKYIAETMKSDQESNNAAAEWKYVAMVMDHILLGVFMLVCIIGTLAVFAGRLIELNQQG

| Substance | Binding affinity [Ru] |
| --- | --- |
| 6mer-1-1225 (RKLICK) | 142 |

same assay, conditions: 6mer-2 Top sequence; SPR; peptides tested at 10 μM

| Substance | Binding affinity [Ru] |
| --- | --- |
| 6mer-2-1 (RRRLKK) | 131 |
| 6mer-2-2 (RWYLKR) | 139 |
| 6mer-2-3 (KVYSRK) | 148 |
| 6mer-2-4 (RSYYRR) | 125 |
| 6mer-2-5 (RWVSKR) | 124 |
| 6mer-2-6 (KSICRR) | 122 |
| 6mer-2-7 (KSRCRK) | 126 |
| 6mer-2-8 (KSLQKK) | 135 |
| 6mer-2-9 (KLICRK) | 139 |
| 6mer-2-10 (KVFSKK) | 124 |
| 6mer-2-11 (RQYQRR) | 121 |
| 6mer-2-12 (RQFQRK) | 147 |
| 6mer-2-13 (RQYTRK) | 123 |
| 6mer-2-14 (RGRQKK) | 153 |
| 6mer-2-15 (KQVRKR) | 133 |
| 6mer-2-16 (KGVCRR) | 121 |
| 6mer-2-17 (RWVTRR) | 142 |
| 6mer-2-18 (RSILRR) | 124 |
| 6mer-2-19 (RSFSKK) | 135 |
| 6mer-2-20 (RVQTRR) | 137 |
| 6mer-2-21 (RLFTRK) | 141 |
| 6mer-2-22 (RQIRKK) | 124 |
| 6mer-2-23 (RWVRKK) | 148 |
| 6mer-2-24 (KGIQRK) | 141 |

same assay, conditions: SPR, Resonance Units; peptides tested at 10 μM; 6mer-1 Bottom sequence

| Substance | Binding affinity [Ru] |
| --- | --- |
| 6mer-1-1072 (KKCTPR) | 36 |
| 6mer-1-1073 (RKYMWK) | 27 |
| 6mer-1-1074 (KRTCGR) | 24 |
| 6mer-1-1075 (KKPSVK) | 38 |
| 6mer-1-1076 (RKKEPK) | 43 |
| 6mer-1-1077 (RRKWGR) | 24 |
| 6mer-1-1078 (RRPDIK) | 25 |
| 6mer-1-1079 (RKHPVK) | 25 |
| 6mer-1-1080 (KKHNMR) | 38 |
| 6mer-1-1081 (KRPSNK) | 23 |
| 6mer-1-1082 (KKTCDR) | 37 |
| 6mer-1-1083 (KKNAVR) | 36 |
| 6mer-1-1084 (KKCCPK) | 25 |
| 6mer-1-1085 (KREAMK) | 33 |
| 6mer-1-1086 (RKEANK) | 22 |
| 6mer-1-1087 (KKPWKR) | 27 |
| 6mer-1-1088 (RRETHK) | 38 |
| 6mer-1-1089 (RKFTKK) | 31 |
| 6mer-1-1090 (KKTMWR) | 27 |
| 6mer-1-1091 (KKDDGK) | 32 |
| 6mer-1-1092 (RKYHDK) | 43 |
| 6mer-1-1093 (RRKSDR) | 37 |
| 6mer-1-1094 (RRMAIK) | 42 |
| 6mer-1-1095 (RRCHVK) | 27 |
| 6mer-1-1096 (RKPEPR) | 23 |
| 6mer-1-1097 (RKNCNK) | 39 |

| Substance | Binding affinity [Ru] |
| --- | --- |
| 6mer-1-1098 (RKKDMR) | 42 |
| 6mer-1-1099 (RRKTDR) | 24 |
| 6mer-1-1100 (KRMSHK) | 43 |
| 6mer-1-1101 (RRECDK) | 37 |
| 6mer-1-1102 (KRFTKK) | 35 |
| 6mer-1-1103 (KREDNK) | 27 |
| 6mer-1-1104 (KRNSAR) | 28 |
| 6mer-1-1105 (RRCTAR) | 40 |
| 6mer-1-1106 (KRFMNK) | 39 |
| 6mer-1-1107 (KRCPPR) | 36 |
| 6mer-1-1108 (RRAHNK) | 43 |
| 6mer-1-1109 (KRCCVR) | 41 |
| 6mer-1-1110 (RKFTER) | 24 |
| 6mer-1-1111 (RRASPR) | 38 |
| 6mer-1-1112 (KKDPWK) | 27 |
| 6mer-1-1113 (RRCTMK) | 28 |
| 6mer-1-1114 (KKFNFK) | 38 |
| 6mer-1-1115 (RKCAFR) | 43 |
| 6mer-1-1116 (KRHPFR) | 35 |
| 6mer-1-1117 (KKEWFR) | 40 |
| 6mer-1-1118 (KKDTIK) | 33 |
| 6mer-1-1119 (KRIWVR) | 31 |
| 6mer-1-1120 (RRKEAK) | 22 |
| 6mer-1-1121 (KKTWWR) | 28 |
| 6mer-1-1122 (RRTMGR) | 33 |
| 6mer-1-1123 (RRDNVK) | 41 |

| Substance | Binding affinity [Ru] |
| --- | --- |
| 6mer-1-1124 (KKDEIR) | 21 |
| 6mer-1-1125 (KKPTDR) | 26 |
| 6mer-1-1126 (RRHCDK) | 41 |
| 6mer-1-1127 (RKMMMK) | 34 |
| 6mer-1-1128 (KKKKPK) | 39 |
| 6mer-1-1129 (RKDHAR) | 39 |
| 6mer-1-1130 (RKATFR) | 31 |
| 6mer-1-1131 (RKDNIK) | 42 |
| 6mer-1-1132 (RRKAER) | 31 |
| 6mer-1-1133 (KKPNIK) | 24 |
| 6mer-1-1134 (KRMSWK) | 22 |
| 6mer-1-1135 (KKHTER) | 26 |
| 6mer-1-1136 (KKIEIK) | 34 |
| 6mer-1-1137 (KRFTDK) | 33 |
| 6mer-1-1138 (KRDCFR) | 21 |
| 6mer-1-1139 (KKMENR) | 36 |
| 6mer-1-1140 (KRATMK) | 43 |
| 6mer-1-1141 (KRNMHK) | 40 |
| 6mer-1-1142 (KKETPR) | 24 |
| 6mer-1-1143 (KRHEFK) | 32 |
| 6mer-1-1144 (KKCMGR) | 25 |
| 6mer-1-1145 (RRDCKK) | 40 |
| 6mer-1-1146 (KKMMPK) | 34 |
| 6mer-1-1147 (RKAPHR) | 35 |
| 6mer-1-1148 (RRCSHR) | 31 |
| 6mer-1-1149 (RKMTPK) | 30 |

| Substance | Binding affinity [Ru] |
| --- | --- |
| 6mer-1-1150 (KRKWWR) | 34 |
| 6mer-1-1151 (KKKEAK) | 34 |
| 6mer-1-1152 (RKYKEK) | 23 |
| 6mer-1-1153 (RKHNKK) | 23 |
| 6mer-1-1154 (RKCEKR) | 41 |
| 6mer-1-1155 (RKKEKR) | 28 |
| 6mer-1-1156 (KRYTVR) | 37 |
| 6mer-1-1157 (RKESVR) | 36 |
| 6mer-1-1158 (RKPMMK) | 33 |
| 6mer-1-1159 (RRAWPR) | 39 |
| 6mer-1-1160 (RRDWAK) | 29 |
| 6mer-1-1161 (KRHWVK) | 40 |
| 6mer-1-1162 (KKCDHR) | 41 |
| 6mer-1-1163 (RKCAFK) | 21 |
| 6mer-1-1164 (KKHHAK) | 41 |
| 6mer-1-1165 (RRATWR) | 29 |
| 6mer-1-1166 (KKEEKR) | 22 |
| 6mer-1-1167 (KRHMMK) | 42 |
| 6mer-1-1168 (KKEKFR) | 40 |
| 6mer-1-1169 (RKMDIR) | 32 |
| 6mer-1-1170 (KKYNPK) | 25 |
| 6mer-1-1171 (RKIAFK) | 40 |
| 6mer-1-1172 (RRFNFR) | 23 |
| 6mer-1-1173 (KKIPMK) | 26 |
| 6mer-1-1174 (RKDAIR) | 30 |
| 6mer-1-1175 (RKTWEK) | 23 |

| Substance | Binding affinity [Ru] |
| --- | --- |
| 6mer-1-1176 (KKADHK) | 21 |
| 6mer-1-1177 (RRHTMR) | 21 |
| 6mer-1-1178 (RKKMAK) | 29 |
| 6mer-1-1179 (KRMTPR) | 40 |
| 6mer-1-1180 (KRPPPK) | 34 |
| 6mer-1-1181 (RRMDAK) | 21 |
| 6mer-1-1182 (KKTCHR) | 35 |
| 6mer-1-1183 (RKIHNK) | 35 |
| 6mer-1-1184 (RRDTVK) | 30 |
| 6mer-1-1185 (KKEMMK) | 29 |
| 6mer-1-1186 (KKNNAK) | 37 |
| 6mer-1-1187 (RRHAHK) | 26 |
| 6mer-1-1188 (RRMNER) | 41 |
| 6mer-1-1189 (KKCHWR) | 40 |
| 6mer-1-1190 (KKCMKR) | 29 |
| 6mer-1-1191 (RKYTKK) | 39 |
| 6mer-1-1192 (RKDDDR) | 36 |
| 6mer-1-1193 (KKPTNK) | 33 |
| 6mer-1-1194 (KKTHAK) | 22 |
| 6mer-1-1195 (KRDEDK) | 25 |
| 6mer-1-1196 (KKTTGR) | 25 |
| 6mer-1-1197 (KRPMAK) | 21 |

same assay, conditions: SPR, peptides tested at 10 μM; 6mer-1 Bottom sequence

| Substance | Binding affinity [Ru] |
| --- | --- |
| 6mer-1-1198 (RRATER) | 28 |
| 6mer-1-1199 (KKTNKR) | 39 |
| 6mer-1-1200 (RKACEK) | 21 |

same assay, conditions: SPR, peptides tested at 10 μM; 6mer-1 Top sequence

| Substance | Binding affinity [Ru] |
| --- | --- |
| 6mer-1-1405 (KKVQTR) | 148 |
| 6mer-1-1458 (RKGQLK) | 139 |
